Laboratory results from PMC10120838, “Dual functions of PsmiR172b-PsTOE3 module in dormancy release and flowering in tree peony (Paeonia suffruticosa)”.

Target: PsTOE3 (MBP-PsTOE3; PsAP2 in primer table) (Paeonia suffruticosa, UniProt A0A189CP77 1-510)
Assay: EMSA; poly(dI-dC); DIG Gel Shift Kit (Roche) per manufacturer, probe 0.155 uM, poly(dI-dC); protein suspended in 20 mM Tris-HCl, 0.2 M NaCl, 1 mM EDTA, 10 mM beta-mercaptoethanol; pH and temperature not stated
Conditions: protein: recombinant, purified on Ni-NTA, label: DIG, blunt

Sequence of PsTOE3 (MBP-PsTOE3; PsAP2 in primer table) (A0A189CP77 entry or part of it): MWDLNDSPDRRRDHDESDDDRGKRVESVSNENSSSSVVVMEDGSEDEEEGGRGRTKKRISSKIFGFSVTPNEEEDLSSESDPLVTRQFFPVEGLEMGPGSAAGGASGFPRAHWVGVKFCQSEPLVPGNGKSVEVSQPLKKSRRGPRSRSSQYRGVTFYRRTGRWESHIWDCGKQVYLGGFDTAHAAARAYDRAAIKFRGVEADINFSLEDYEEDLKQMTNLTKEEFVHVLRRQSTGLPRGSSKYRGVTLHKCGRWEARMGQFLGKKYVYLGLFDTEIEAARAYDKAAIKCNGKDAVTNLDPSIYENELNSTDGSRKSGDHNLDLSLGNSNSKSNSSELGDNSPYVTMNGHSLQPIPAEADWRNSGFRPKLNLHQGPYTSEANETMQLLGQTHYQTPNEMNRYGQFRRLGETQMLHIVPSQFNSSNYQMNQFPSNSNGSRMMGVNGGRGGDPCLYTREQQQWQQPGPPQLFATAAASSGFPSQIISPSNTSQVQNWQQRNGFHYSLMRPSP

B1: C-repeat probe of PsEBB1 (4x ACCGAC) (dsDNA)
DNA 1: AACCGACACCGACACCGACACCGAC
DNA 2: GTCGGTGTCGGTGTCGGTGTCGGTT
binding result (R oligo S209 is printed as the plain complement (3'-5' order) although the header says 5'-3'): binds

B2: mutant C-repeat probe (4x AGCGAC) (dsDNA)
DNA 1: AAGCGACAGCGACAGCGACAGCGAC
DNA 2: GTCGCTGTCGCTGTCGCTGTCGCTT
binding result (R oligo S211 is printed as the plain complement (3'-5' order) although the header says 5'-3'): no binding
